Results reported in article PMC6238537.

Legend:
Assay in all cases: solid-phase binding assay
[1] = biological target: recombinant integrin αvβ3, P06756;P05106; settings: read off a plot
[2] = biological target: recombinant integrin αvβ5, P06756;P18084; settings: read off a plot
[3] = biological target: recombinant integrin α9β1, Q13797;P05556; settings: parent: est. 0.11; read off a plot
Chain of recombinant integrin α9β1, Q13797;P05556 (chain, as listed by the source, chain 1 of 2): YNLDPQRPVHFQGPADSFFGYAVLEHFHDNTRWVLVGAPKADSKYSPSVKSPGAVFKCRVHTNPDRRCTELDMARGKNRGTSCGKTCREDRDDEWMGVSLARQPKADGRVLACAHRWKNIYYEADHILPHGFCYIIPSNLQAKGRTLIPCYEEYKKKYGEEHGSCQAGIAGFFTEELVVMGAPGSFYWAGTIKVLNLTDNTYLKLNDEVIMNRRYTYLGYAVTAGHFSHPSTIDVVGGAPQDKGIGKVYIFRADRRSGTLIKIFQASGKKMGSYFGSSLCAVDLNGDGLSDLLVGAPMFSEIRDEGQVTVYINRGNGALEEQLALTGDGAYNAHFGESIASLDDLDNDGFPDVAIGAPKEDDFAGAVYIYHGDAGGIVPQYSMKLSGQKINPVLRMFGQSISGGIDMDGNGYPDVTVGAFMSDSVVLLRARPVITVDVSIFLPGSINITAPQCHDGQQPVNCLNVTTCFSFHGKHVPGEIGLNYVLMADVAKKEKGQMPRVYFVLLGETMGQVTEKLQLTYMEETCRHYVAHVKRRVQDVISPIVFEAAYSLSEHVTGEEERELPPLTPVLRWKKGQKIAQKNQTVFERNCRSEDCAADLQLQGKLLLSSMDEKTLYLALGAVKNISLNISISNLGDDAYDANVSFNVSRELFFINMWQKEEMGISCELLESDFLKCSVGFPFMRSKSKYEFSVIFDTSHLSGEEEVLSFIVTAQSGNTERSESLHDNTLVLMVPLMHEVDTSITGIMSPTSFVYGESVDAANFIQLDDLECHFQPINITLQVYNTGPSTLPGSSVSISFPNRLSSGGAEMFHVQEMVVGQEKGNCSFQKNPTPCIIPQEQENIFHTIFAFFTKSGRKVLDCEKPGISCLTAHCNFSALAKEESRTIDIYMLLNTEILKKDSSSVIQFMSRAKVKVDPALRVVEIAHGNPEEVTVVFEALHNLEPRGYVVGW
Chain of recombinant integrin α9β1, Q13797;P05556 (chain, as listed by the source, chain 2 of 2): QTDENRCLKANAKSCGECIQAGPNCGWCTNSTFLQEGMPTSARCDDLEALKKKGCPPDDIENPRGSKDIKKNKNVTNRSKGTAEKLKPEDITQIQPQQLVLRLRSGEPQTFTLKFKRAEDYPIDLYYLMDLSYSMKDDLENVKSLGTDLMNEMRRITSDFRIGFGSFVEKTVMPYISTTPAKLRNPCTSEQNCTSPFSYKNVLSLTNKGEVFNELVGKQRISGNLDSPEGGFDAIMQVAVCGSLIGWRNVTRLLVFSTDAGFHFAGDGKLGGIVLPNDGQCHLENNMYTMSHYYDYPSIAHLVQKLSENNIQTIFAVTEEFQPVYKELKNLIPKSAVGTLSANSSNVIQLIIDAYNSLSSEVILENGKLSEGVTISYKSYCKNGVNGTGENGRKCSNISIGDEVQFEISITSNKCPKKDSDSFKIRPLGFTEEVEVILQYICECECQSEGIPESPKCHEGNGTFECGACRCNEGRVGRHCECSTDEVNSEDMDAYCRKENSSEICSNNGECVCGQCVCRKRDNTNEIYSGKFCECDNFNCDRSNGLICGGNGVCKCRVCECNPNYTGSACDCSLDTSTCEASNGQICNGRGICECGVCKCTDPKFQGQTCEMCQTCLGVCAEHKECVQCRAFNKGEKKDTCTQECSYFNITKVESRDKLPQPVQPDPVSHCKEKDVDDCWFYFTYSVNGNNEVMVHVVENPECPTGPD

response (absorbance at 490 nm) ([1]; parent: est. 0.15) | response (absorbance at 490 nm) ([2]; parent: est. 0.26) | response (absorbance at 490 nm) ([1]; parent: est. 0.53) | response (absorbance at 490 nm) [3] | response (absorbance at 490 nm) ([2]; parent: est. 1.4) | Substance
0.17 | 0.27 | – | – | – | recombinant human laminin-111 (from UniProt P25391;P07942;P11047) γ1:EQ (γ1C-Glu to Gln)
– | – | 0.62 | 0.13 | 1.6 | recombinant human laminin-511, O15230;P07942;P11047 γ1:EQ (γ1C-Glu to Gln)
